This data set concerns the target hFEN1QF (Homo sapiens, UniProt P39748 1-336, E120C;C235A;S293C;C311A). The experiment in a line: single-molecule FRET; 8 mM Ca2+; 20 nM DNA, ~50 pM protein; NMR: 10 mM HEPES-KOH pH 7.5, 6 mM KCl (76 mM KCl in titration), 0.1 mM EDTA, 4 mM NaN3, 100 mM bME, 298 K; smFRET: 55 mM HEPES-KOH pH 7.5, 110 mM KCl, 8 mM CaCl2, 0.1 mg/ml BSA, 1 mM DTT, room temperature. The following applies: protein: recombinant; tags: C-terminal HRV 3C-cleavable His6, cleaved; six residual C-terminal residues of the 3C site; bimolecular double flap: 5-nt 5' flap, 1-nt 3' flap; T1 has a GAA hairpin; F1:T1 annealed 1:1.1.

hFEN1QF, sequence (P39748 1-336 E120C/C235A/S293C/C311A): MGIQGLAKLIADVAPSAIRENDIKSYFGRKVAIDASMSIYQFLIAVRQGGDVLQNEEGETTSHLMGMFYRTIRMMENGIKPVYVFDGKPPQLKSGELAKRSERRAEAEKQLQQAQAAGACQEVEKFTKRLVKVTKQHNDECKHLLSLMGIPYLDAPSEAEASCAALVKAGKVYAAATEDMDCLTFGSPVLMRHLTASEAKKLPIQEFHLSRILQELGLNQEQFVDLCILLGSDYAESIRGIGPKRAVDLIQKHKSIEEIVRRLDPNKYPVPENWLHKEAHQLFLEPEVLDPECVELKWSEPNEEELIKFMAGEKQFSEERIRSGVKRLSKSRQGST

B1: DF5,1 (F1/T1) (structured_DNA)
DNA 1: TTTTTACAAGGACTGCTCGACAC
DNA 2: GTGTCGAGCAGTCCTTGTGACGACGAAGTCGTCC
In the case of B1, the binding result is “binds”.
